The data set concerns the molecule itself. The experiment in a line: crystal structure.

B1: Δ25 construct of chicken ASIC1a (domain or fragment, UniProt Q1XA76 25-463, looked up)
chain: SSTLHGISHIFSYERLSLKRVVWALCFMGSLALLALVCTNRIQYYFLYPHVTKLDEVAATRLTFPAVTFCNLNEFRFSRVTKNDLYHAGELLALLNNRYEIPDTQTADEKQLEILQDKANFRNFKPKPFNMLEFYDRAGHDIREMLLSCFFRGEQCSPEDFKVVFTRYGKCYTFNAGQDGKPRLITMKGGTGNGLEIMLDIQQDEYLPVWGETDETSFEAGIKVQIHSQDEPPLIDQLGFGVAPGFQTFVSCQEQRLIYLPPPWGDCKATTGDSEFYDTYSITACRIDCETRYLVENCNCRMVHMPGDAPYCTPEQYKECADPALDFLVEKDNEYCVCEMPCNVTRYGKELSMVKIPSKASAKYLAKKYNKSEQYIGENILVLDIFFEALNYETIEQKKAYEVAGLLGDIGGQMGLFIGASILTVLELFDYAYEVIKHR
B1: the binding result is “binds”.
